{
  "source": "patent US10801046B2",
  "about": "“Methods and materials for biosynthesizing multifunctional, multivariate molecules via carbon chain modification” (INVISTA NORTH AMERICA S.A.R.L., priority 2016, dated 2020)",
  "molecules": {"B1": {"name": "5TE: Lactobacillus brevis thioesterase (protein)", "chain": "MAANEFSETHRVVYYEADDTGQLTLAMLINLFVLVSEDQNDALGLSTAFVQSHGVGWVVTQYHLHIDELPRTGAQVTIKTRATAYNRYFAYREYWLLDDAGQVLAYGEGIWVTMSYATRKITTIPAEVMAPYHSEEQTRLPRLPRPDHFDEAVNQTLKPYTVRYFDIDGNGHVNNAHYFDWMLDVLPATFLRAHHPTDVKIRFENEVQYGHQVTSELSQAAALTTQHMIKVGDLTAVKATIQWDNR", "modifications": "Lactobacillus brevis (strain ATCC 367 / JCM 1170)", "notes": "Lactobacillus brevis thioesterase"}, "B2": {"name": "6TE: Lactobacillus delbrueckii thioesterase (protein, listed as Lactobacillus delbrueckii)", "chain": "MRYYKDYQLKYVDCGESGQLKLPRMIDLMMESSEGQLAPTLGGASAMKERGRGWVVTQYEFEFTSLPRAGQKVRVWTEAVGYNRFLSYRDFGIEDEAGKDLVIAHSQWVLFDLKSRKLLPSDDKIAEELGAPLLAKIPRFKKLRPKDDYKDEKVYRAYYYDLDSNHHVNNAHYLDWIVDSLPRDFVNSHEPKDLAIKFDKEIKYGDEVVCQVMQETEDSAVKTCHAITRQGELMALCEVNWQKMCFNRD"}, "B3": {"name": "11TE: Bacillus coagulans thioesterase (protein)", "chain": "MANGSSLYKGQYHIELRDVDFTKKLKLSALFSLFQDIASLAAEDLGYGIETLEKKYKVAWILTRIRVDILRHPTWDENITIETWPLQPSKIDFDRDFLVKDHTGAVIIKAASKWVVMGLNDRKIKRTESINIHYPENRTERAIEGKFGKFKDFGGLEPAYQKVIGYSDIDFNGHLNNSKYVDYIMDCFLPDFHKRHPIHTIEINFNQEALPGDSITLYKDISKMDEHELYVEGVNQTDHHTIFKSHITIH", "modifications": "Bacillus coagulans (strain 2-6)", "notes": "Bacillus coagulans thioesterase"}, "B4": {"name": "14 TE: Paenibacillus lactis thioesterase (protein)", "chain": "MVEKWTETYTIQSVDADFRGDCRWSSLLSIMQRAADKHIEALGIDREEMIERGLGWMLITLEADMTSIPRDMETIHVETWSRGSKGVLWHRDYRIMNDHGEQVGGARSVWTLVDIQKRKILRPSMFPYDVPIGQDSVGELPSKAVLPEGIELGEAYTTVVRYSGIDVNGHLNNARYADLCMDVLDEPELQGDKVTGFKITYNHEARLKDTIIVRRSGEIEGRIFVQGVSPEGTNFFEAALVKRKQ", "modifications": "Paenibacillus lactis 154", "notes": "Paenibacillus lactis thioesterase"}, "B5": {"name": "SEQ ID NO: 119: Escherichia coli aminotransferase, gene product of ygjG (protein)", "chain": "MNRLPSSASALACSAHALNLIEKRTLDHEEMKALNREVIEYFKEHVNPGFLEYRKSVTAGGDYGAVEWQAGSLNTLVDTQGQEFIDCLGGFGIFNVGHRNPVVVSAVQNQLAKQPLHSQELLDPLRAMLAKTLAALTPGKLKYSFFCNSGTESVEAALKLAKAYQSPRGKFTFIATSGAFHGKSLGALSATAKSTFRKPFMPLLPGFRHVPFGNIEAMRTALNECKKTGDDVAAVILEPIQGEGGVILPPPGYLTAVRKLCDEFGALMILDEVQTGMGRTGKMFACEHENVQPDILCLAKALGGGVMPIGATIATEEVFSVLFDNPFLHTTTFGGNPLACAAALATINVLLEQNLPAQAEQKGDMLLDGFRQLAREYPDLVQEARGKGMLMAIEFVDNEIGYNFASEMFRQRVLVAGTLNNAKTIRIEPPLTLTIEQCELVIKAARKALAAMRVSVEEA", "modifications": "Escherichia coli (strain K12)", "notes": "Escherichia coli aminotransferase, gene product of ygjG"}, "B6": {"name": "SEQ ID NO: 125: Pseudomonas aeruginosa aminotransferase (protein, listed as Pseudomonas aeruginosa)", "chain": "MNARLHATSPLGDADLVRADQAHYMHGYHVFDDHRVNGSLNIAAGDGAYIYDTAGNRYLDAVGGMWCTNIGLGREEMARTVAEQTRLLAYSNPFCDMANPRAIELCRKLAELAPGDLDHVFLTTGGSTAVDTAIRLMHYYQNCRGKRAKKHVITRINAYHGSTFLGMSLGGKSADRPAEFDFLDERIHHLACPYYYRAPEGLGEAEFLDGLVDEFERKILELGADRVGAFISEPVFGSGGVIVPPAGYHRRMWELCQRYDVLYISDEVVTSFGRLGHFFASQAVFGVQPDIILTAKGLTSGYQPLGACIFSRRIWEVIAEPDKGRCFSHGFTYSGHPVACAAALKNIEIIEREGLLAHADEVGRYFEERLQSLRDLPIVGDVRGMRFMACVEFVADKASKALFPESLNIGEWVHLRAQKRGLLVRPIVHLNVMSPPLILTREQVDTVVRVLRESIEETVEDLVRAGHR", "modifications": "Pseudomonas aeruginosa (strain ATCC 15692 / DSM 22644 / CIP 104116 / JCM 14847 / LMG 12228 / 1C / PRS 101 / PAO1)", "notes": "Pseudomonas aeruginosa aminotransferase"}},
  "key": {"[1]": {"system": "heptanedioyl-[acp] or heptanedioyl-[acp] methyl ester", "test": "Thioesterase enzyme activity assay, release of holo-ACP monitored by absorbance at 412 nm", "assay_type": "biochemical", "settings": "purified thioesterase, 37° C., 30 min, FIG. 41", "protocol": "The thioesterases were expressed and purified following procedures disclosed herein. The enzyme activity assay was performed in duplicate or triplicate in a buffer having heptanedioyl-[acp] or heptanedioyl-[acp] methyl ester as substrate. The enzyme activity assay reaction was initiated by adding purified thioesterase gene products to the assay buffer and incubating at 37° C. for 30 min. The release of holo-ACP was monitored by absorbance at 412 nm. The absorbance associated with the empty vector control is very low. Many of the gene products of thioesterases accepted heptanedioyl-[acp] or heptanedioyl-[acp] methyl ester as substrate as confirmed via relative spectrophotometry (see FIG. 41)."}, "heptanedioyl-ACP": {"system": "heptanedioyl-ACP", "assay_type": "cell-based, Escherichia coli", "settings": "top 150 hits screened in vivo"}, "[2]": {"test": "Aminotransferase activity, N7-acetyl-1,7-diaminoheptane to N7-acetyl-7-aminoheptanal, L-alanine formation by RP-HPLC", "assay_type": "biochemical", "settings": "cell free extract, 10 mM substrate, 25° C., 4 h, against empty vector control, FIG. 51", "protocol": "The activity of the N-terminal His-tagged aminotransferases of SEQ ID NOs: 116 (GenBank Accession No. AAQ59697.1), 119 (RefSeq Accession No. NP_417544.5), 125 (GenBank Accession No. AAGO8191.1), 126 (GenBank Accession No. AAY39893.1), 127 (GenBank Accession No. ABA81135.1), and 128 (GenBank Accession No. AEA39183.1) (see Example 6) for converting N7-acetyl-1,7-diaminoheptane to N7-acetyl-7-aminoheptanal was assayed using a buffer composed of a final concentration of 50 mM HEPES buffer (pH=7.5), 10 mM N7-acetyl-1,7-diaminoheptane, 10 mM pyruvate and 100 μM pyridoxyl 5′ phosphate. Each enzyme activity assay reaction was initiated by adding a cell free extract of the aminotransferases or the empty vector control to the assay buffer containing the N7-acetyl-1,7-diaminoheptane then incubated at 25° C. for 4 h, with shaking at 250 rpm. The formation of L-alanine was quantified via RP-HPLC."}, "[3]": {"test": "Aminotransferase activity, heptane-1,7-diamine to 7-aminoheptanal, L-alanine formation by RP-HPLC", "assay_type": "biochemical", "settings": "cell free extract, 10 mM substrate, 25° C., 4 h, against empty vector control, FIG. 50", "protocol": "A sequence encoding an N-terminal His-tag was added to the Chromobacterium violaceum, Pseudomonas aeruginosa, Pseudomonas syringae, Rhodobacter sphaeroides, Escherichia coli, and Vibrio fluvialis genes encoding the aminotransferases of SEQ ID NOs: 116 (GenBank Accession No. AAQ59697.1), 119 (RefSeq Accession No. NP_417544.5), 125 (GenBank Accession No. AAGO8191.1), 126 (GenBank Accession No. AAY39893.1), 127 (GenBank Accession No. ABA81135.1), and 128 (GenBank Accession No. AEA39183.1), respectively such that N-terminal HIS tagged aminotransferases could be produced. The modified genes were cloned into a pET21a expression vector under the T7 promoter. Each expression vector was transformed into a BL21[DE3] E. coli host. Each resulting recombinant E. coli strain were cultivated at 37° C. in a 250 mL shake flask culture containing 50 mL LB media and antibiotic selection pressure, with shaking at 230 rpm. Each culture was induced overnight at 16° C. using 1 mM IPTG.\nThe pellet from each induced shake flask culture was harvested via centrifugation. Each pellet was resuspended and lysed via sonication. The cell debris was separated from the supernatant via centrifugation and the cell free extract was used immediately in enzyme activity assays.\nEnzyme activity assays in the reverse direction (i.e., heptane-1,7-diamine to 7-aminoheptanal) were performed in a buffer composed of a final concentration of 50 mM HEPES buffer (pH=7.5), 10 mM heptane-1,7-diamine, 10 mM pyruvate, and 100 μM pyridoxyl 5′ phosphate. Each enzyme activity assay reaction was initiated by adding cell free extract of the aminotransferase gene product or the empty vector control to the assay buffer containing the heptane-1,7-diamine and then incubated at 25° C. for 4 h, with shaking at 250 rpm. The formation of L-alanine was quantified via RP-HPLC."}},
  "data": [
    {"molecule": "B1", "values": [
      {"measurement": "synthesis of holo-ACP using heptanedioyl-[acp] methyl ester as substrate, compared to using heptanedioyl-[acp] as substrate", "setting": "[1]", "result": "more efficiently"}
    ]},
    {"molecule": "B2", "values": [
      {"measurement": "synthesis of holo-ACP using heptanedioyl-[acp] methyl ester as substrate, compared to using heptanedioyl-[acp] as substrate", "setting": "[1]", "result": "more efficiently"}
    ]},
    {"molecule": "B3", "values": [
      {"measurement": "activity toward heptanedioyl-ACP in vivo", "setting": "heptanedioyl-ACP", "result": "displayed considerable activity toward heptanedioyl-ACP"},
      {"measurement": "synthesis of holo-ACP using heptanedioyl-[acp] methyl ester as substrate, compared to using heptanedioyl-[acp] as substrate", "setting": "[1]", "result": "more efficiently"}
    ]},
    {"molecule": "B4", "values": [
      {"measurement": "synthesis of holo-ACP using heptanedioyl-[acp] methyl ester as substrate, compared to using heptanedioyl-[acp] as substrate", "setting": "[1]", "result": "more efficiently"}
    ]},
    {"molecule": "B5", "values": [
      {"measurement": "acceptance of N7-acetyl-1,7-diaminoheptane as substrate, forming N7-acetyl-7-aminoheptanal", "setting": "[2]", "result": "accepted N7-acetyl-1,7-diaminoheptane as a substrate"},
      {"measurement": "acceptance of heptane-1,7-diamine as substrate, forming 7-aminoheptanal", "setting": "[3]", "result": "accepted heptane-1,7-diamine as substrate"}
    ]},
    {"molecule": "B6", "values": [
      {"measurement": "acceptance of N7-acetyl-1,7-diaminoheptane as substrate, forming N7-acetyl-7-aminoheptanal", "setting": "[2]", "result": "accepted N7-acetyl-1,7-diaminoheptane as a substrate"},
      {"measurement": "acceptance of heptane-1,7-diamine as substrate, forming 7-aminoheptanal", "setting": "[3]", "result": "accepted heptane-1,7-diamine as substrate"}
    ]}
  ]
}
